According to PMC11144326, “Structure–function characterization of two enzymes from novel subfamilies of manganese peroxidases secreted by the lignocellulose-degrading Agaricales fungi Agrocybe pediades and Cyathus striatus” (Biotechnology for Biofuels and Bioproducts, 2024):
Read-outs that look alike come from different tables or passages of the source.

B1: Cst-MnP1 (Cyathus striatus) (protein)
chain: VTCPDGHVTANRACCALFPVVQNLQENLFDGGECGEEAHSALRLSFHDAIGFSLNSNKGGGADGSILLFNATELTFHANGGIDDITSRQFPVFETTGLTPGDFVHLAGAVGTANCPGAPRLQFMFGRPPPIAPAPDLTVPEPTDDVDAILARFADAGFDASEVVALLSSHTIAAADVVDVTIPGTPFDSTVGTFDTQVFLEVLLAGRSFPGNGSQPGEVLSPLAGEMRLQSDFVVSRDSRTACLWQAMVNNQQLMVSSFAAAMAKLQVLGQNVNTMVDCSDVIPEPAPFAGPIKFPASFSMADVEQACASTFPQIQTVAGPAPTVAPVPGS
B2: Cst-MnP1 (Cyathus striatus; E36A) (protein)
chain: VTCPDGHVTANRACCALFPVVQNLQENLFDGGECGAEAHSALRLSFHDAIGFSLNSNKGGGADGSILLFNATELTFHANGGIDDITSRQFPVFETTGLTPGDFVHLAGAVGTANCPGAPRLQFMFGRPPPIAPAPDLTVPEPTDDVDAILARFADAGFDASEVVALLSSHTIAAADVVDVTIPGTPFDSTVGTFDTQVFLEVLLAGRSFPGNGSQPGEVLSPLAGEMRLQSDFVVSRDSRTACLWQAMVNNQQLMVSSFAAAMAKLQVLGQNVNTMVDCSDVIPEPAPFAGPIKFPASFSMADVEQACASTFPQIQTVAGPAPTVAPVPGS
B3: Cst-MnP1 (Cyathus striatus; S40A) (protein)
chain: VTCPDGHVTANRACCALFPVVQNLQENLFDGGECGEEAHAALRLSFHDAIGFSLNSNKGGGADGSILLFNATELTFHANGGIDDITSRQFPVFETTGLTPGDFVHLAGAVGTANCPGAPRLQFMFGRPPPIAPAPDLTVPEPTDDVDAILARFADAGFDASEVVALLSSHTIAAADVVDVTIPGTPFDSTVGTFDTQVFLEVLLAGRSFPGNGSQPGEVLSPLAGEMRLQSDFVVSRDSRTACLWQAMVNNQQLMVSSFAAAMAKLQVLGQNVNTMVDCSDVIPEPAPFAGPIKFPASFSMADVEQACASTFPQIQTVAGPAPTVAPVPGS
B4: Ape-MnP1 (Agrocybe pediades) (protein)
chain: TICADGTSVANGACCKLIPVVKDLTENLFEGECGDAAHGALRLVFHDAIAISPTLGGGGADGSIAVFNATELTFHANTGIDDVLDAVGPFLLKHSDVMTPGDFIQLAGAVSLTQCNGAPRVKFVMGRPPPKAAAPNLLVPEPFDSVATILQRFGELGFTKEETVAVIGGSHSVAGADDIVPNEQGIPFDQTPSIFDTQIFVDVQLRGTMIPGNGTTEGEVETAVPGTVRLQSDHLLARDASTSCIWQSFVNQQSKMAQVFGEAIFKMSLLGQTQSKLIDCSEVIPRAIPFSHGPATLPPGQTLKDIEQACAASPFPTLSTQPGPVTSVPAIPQADDS

Experiments:
Ape-MnP1 [1] = settings: read-out: Ape-MnP1 Q333P; 0.3 mM H2O2, 100 mM sodium tartrate, optimal pH, 25 °C
Ape-MnP1 [2] = assay: steady-state oxidation, coerulignone formation at […] nm; type: biochemical, Agrocybe pediades; settings: 0.3 mM H2O2, 100 mM sodium tartrate, optimal pH, 25 °C; read-out: Ape-MnP1 Q333P
purified protein [3] = substrate: CCn1c(=NN=c2sc3cc(S(=O)(=O)O)ccc3n2CC)sc2cc(S(=O)(=O)O)ccc21; assay: purified protein; type: biochemical, Cyathus striatus; settings: 0.3 mM H2O2, 100 mM sodium tartrate, optimal pH, 25 °C
purified protein [4] = substrate: COc1cccc(OC)c1O; assay: purified protein; type: biochemical, Cyathus striatus; settings: 0.3 mM H2O2, 100 mM sodium tartrate, optimal pH, 25 °C
purified protein [5] = substrate: CCn1c(=NN=c2sc3cc(S(=O)(=O)O)ccc3n2CC)sc2cc(S(=O)(=O)O)ccc21; assay: purified protein; type: biochemical, Agrocybe pediades; settings: 0.3 mM H2O2, 100 mM sodium tartrate, optimal pH, 25 °C
purified protein [6] = substrate: COc1cccc(OC)c1O; assay: purified protein; type: biochemical, Agrocybe pediades; settings: 0.3 mM H2O2, 100 mM sodium tartrate, optimal pH, 25 °C

Row | Molecule | Km (purified protein [3]) [µM] | kcat (purified protein [3]) [s⁻¹] | kcat/Km (purified protein [3]) [M⁻¹ s⁻¹] | Km (purified protein [4]) [µM] | kcat (purified protein [4]) [s⁻¹] | kcat/Km (purified protein [4]) [M⁻¹ s⁻¹] | further results
1 | CCn1c(=NN=c2sc3cc(S(=O)(=O)O)ccc3n2CC)sc2cc(S(=O)(=O)O)ccc21 [ABTS] | – | – | – | – | – | – | Km (Ape-MnP1 [1]): 1890 ± 250 µM
2 | COc1cccc(OC)c1O [DMP] | – | – | – | – | – | – | Km (Ape-MnP1 [2]): 2900 ± 590 µM
3 | B1 | 3250 ± 220 | 60 ± 1.4 | 18000 ± 1300 | 4650 ± 560 | 4.2 ± 0.2 | 980 ± 120 | –
4 | B2 | 1900 ± 455 | 67 ± 18 | 35500 ± 12800 | 2120 ± 500 | 2.62 ± 0.17 | 1240 ± 300 | –
5 | B3 | 2990 ± 455 | 112 ± 4.6 | 37500 ± 5900 | – | – | – | –
6 | B4 | – | – | – | – | – | – | Km (purified protein [5]): 2730 ± 280 µM; kcat (purified protein [5]): 146 ± 6 s⁻¹; kcat/Km (purified protein [5]): 53000 ± 6000 M⁻¹ s⁻¹; Km (purified protein [6]): 2880 ± 490 µM; kcat (purified protein [6]): 11.5 ± 0.8 s⁻¹; kcat/Km (purified protein [6]): 4200 ± 500 M⁻¹ s⁻¹
